Test results from PMC3351461.

How the values were obtained:
[1] = target: Wnt3a (human (endogenous in H322 and H460)) (UniProt P56704)
[2] = target: Wnt3a (human (endogenous in H322 and H460)) (UniProt P56704); remark: listed apart in the source

Sequence of UniProt P56704 (P56704 19-352): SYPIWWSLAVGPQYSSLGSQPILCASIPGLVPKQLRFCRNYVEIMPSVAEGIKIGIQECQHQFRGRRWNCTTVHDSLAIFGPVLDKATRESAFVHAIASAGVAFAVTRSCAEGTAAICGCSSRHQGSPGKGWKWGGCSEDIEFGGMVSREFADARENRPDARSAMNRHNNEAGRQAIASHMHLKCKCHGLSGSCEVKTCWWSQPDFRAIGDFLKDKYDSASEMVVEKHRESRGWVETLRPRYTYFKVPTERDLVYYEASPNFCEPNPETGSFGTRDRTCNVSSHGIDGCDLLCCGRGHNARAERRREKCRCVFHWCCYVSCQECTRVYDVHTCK

## soluble LRP6 receptor (sLRP6E1E2) (domain or fragment)
[1]
  nuclear beta-catenin (immunofluorescence, quantified) in H322 cells with Wnt3a, decrease in dE1-k35/sLRP6E1E2-transduced cells compared with dE1-k35/LacZ: 98.1%
[2]
  TOPflash luciferase activity in H322 cells with recombinant Wnt3a (100 ng/ml), lower in dE1-k35/sLRP6E1E2-transduced than in dE1-k35/LacZ-transduced cells: 52%
  TOPflash luciferase activity in H322 cells without added Wnt3a, reduction by dE1-k35/sLRP6E1E2 compared with dE1-k35/LacZ: 12%
  TOPflash luciferase activity in H460 cells with recombinant Wnt3a (100 ng/ml), lower in dE1-k35/sLRP6E1E2-transduced than in dE1-k35/LacZ-transduced cells: 48%
  TOPflash luciferase activity in H460 cells without added Wnt3a, reduction by dE1-k35/sLRP6E1E2 compared with dE1-k35/LacZ: 48%
